Target: T1, His-DXO1 (Arabidopsis thaliana, UniProt Q8RY73 1-544)
T1 construct: also called His-tagged DXO1; source: E. coli BL21 Rosetta, purified (Ni-NTA); not shown: His6, N-terminal, kept
Assay: pull-down; GST pull-down: 2 ug GST-RNMT1 with His-DXO1 or His-cDXO1 on GST agarose beads, 20 mM Tris-HCl pH 7.5, 100 mM NaCl, 1 mM DTT, 1 mM EDTA, 1 h; in the presence of RNase A; eluted with 10 mM GSH; blots with anti-His and anti-GST
Details: both partners purified

T1 sequence (Q8RY73 whole entry): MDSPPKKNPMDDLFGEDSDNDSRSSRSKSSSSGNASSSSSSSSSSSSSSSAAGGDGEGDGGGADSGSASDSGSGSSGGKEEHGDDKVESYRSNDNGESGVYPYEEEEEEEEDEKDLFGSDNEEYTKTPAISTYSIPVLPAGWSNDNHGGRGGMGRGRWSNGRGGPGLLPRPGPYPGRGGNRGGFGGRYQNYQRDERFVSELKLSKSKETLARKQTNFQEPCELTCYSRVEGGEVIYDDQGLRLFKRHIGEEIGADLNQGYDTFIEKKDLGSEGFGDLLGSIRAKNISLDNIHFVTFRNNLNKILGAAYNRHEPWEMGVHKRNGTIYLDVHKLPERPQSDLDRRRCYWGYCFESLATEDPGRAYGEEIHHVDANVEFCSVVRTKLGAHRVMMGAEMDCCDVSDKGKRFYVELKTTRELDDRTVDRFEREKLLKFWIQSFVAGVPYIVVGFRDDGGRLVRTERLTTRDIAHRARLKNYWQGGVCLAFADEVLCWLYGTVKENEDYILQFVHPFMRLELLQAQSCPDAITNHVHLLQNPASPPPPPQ

B1: GST-RNMT1 (natural protein, Arabidopsis thaliana, UniProt Q9LHQ7 1-370, looked up)
chain: MKRGFSDSPSSSAPPPSSRFKSNPEGDSQFLEDETTKNFARKVADHYSRRTNQTLEEREASPIIHLKKLNNWIKSVLIQLYARPDDAVLDLACGKGGDLIKWDKARIGYYVGIDIAEGSIEDCRTRYNGDADHHQRRKKFSFPSRLLCGDCFEVELDKILEEDAPFDICSCQFAMHYSWTTEARARRALANVSALLRPGGVFIGTMPDANVIIKKLREAEGLEIGNSVYWIRFGEEYSQKKFKSSSPFGIEYVFHLEDAVDCPEWIVPFNVFKSLAEEYDLELVFVKNSHEFVHEYMKKPEFVELMRRLGALGDGSNDQSTLSADEWEAAYLYLSFVLRKRGESDGARRSGRRKNGKMNLSKDDVLYIDS
notes: The methods name a 'GST-DXO1' fusion in pGEX-4T-1 and RNMT1 in pET28a, while results, legend and pull-down methods use GST-RNMT1; In the functional rows the RNMT1 was the recombinant protein from pET28a (6X His); also called GST-tagged RNMT1; source: E. coli BL21 Rosetta, purified (GST agarose beads); not shown: GST, N-terminal, kept
B1: binds.
